Source: article PMC8689070

Assays:
[1] = test system: CovR-P (SP-TyK-phosphorylated) (Streptococcus pyogenes (M1T1 5448?; locus numbering MGAS5005)); test: EMSA
[2] = test system: CovR (non-phosphorylated) (Streptococcus pyogenes (M1T1 5448?; locus numbering MGAS5005)); test: EMSA

Work on PcovR yielded a binding signal (fold vs non-phosphorylated CovR) [1] of 4 and a binding signal (fold of CovR-P binding) [2] of 0.25.
